PMC4198189, “Human Valacyclovir Hydrolase/Biphenyl Hydrolase-Like Protein Is a Highly Efficient Homocysteine Thiolactonase” (PLoS ONE, 2014)

Substrate: N[C@H]1CCSC1=O
Test: purified protein
Type: biochemical, Homo sapiens
Settings: Dulbecco's PBS with 0.32 mM DTNB, 37 °C, partially purified native enzyme

B1: human liver BPHL (purified human liver HCTLase) (Homo sapiens) (protein)
chain: SVTSAKVAVNGVQLHYQQTGEGDHAVLLLPGMLGSGETDFGPQLKNLNKKLFTVVAWDPRGYGHSRPPDRDFPADFFERDAKDAVDLMKALKFKKVSLLGWSDGGITALIAAAKYPSYIHKMVIWGANAYVTDEDSMIYEGIRDVSKWSERTRKPLEALYGYDYFARTCEKWVDGIRQFKHLPDGNICRHLLPRVQCPALIVHGEKDPLVPRFHADFIHKHVKGSRLHLMPEGKHNLHLRFADEFNKLAEDFLQ
notes: native, partially purified from pooled human liver (five donors); about 30 kDa by gel filtration; identified by MS, with ACAA1 and hydroxyacyl-CoA dehydrogenase bands co-purifying
  Km: 3.92 mM
